Measurements as given in the supplement of paper PMC9112550, “Optimization of the antimicrobial peptide Bac7 by deep mutational scanning” (BMC Biology, 2022).

System: Escherichia coli TOP10
Test: shrunken log2 fold change of peptide-encoding DNA abundance (4.5 h post-induction vs induction); higher = less antimicrobial activity (less host growth inhibition)
Conditions: time post-induction: 4.5 h; library: site-saturation at positions 5, 18, 19, 20
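Note: peptides expressed intracellularly from a pBAD plasmid library in pooled LB shake-flask culture, induced with 0.3% L-arabinose, DNA abundance read by NGS, three biological replicates, DESeq2 with apeglm shrinkage.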

Row | Sequence | shrunken log2 fold change
1 | RRIRGRPPRLPRPRPRPSFRPRP | 0.0601
2 | RRIRGRPPRLPRPRPRPSFSPRP | 0.154
3 | RRIRGRPPRLPRPRPRPSGSPRP | 0.128
4 | RRIRGRPPRLPRPRPRPSGYPRP | -0.167
5 | RRIRGRPPRLPRPRPRPSHDPRP | 0.136
6 | RRIRGRPPRLPRPRPRPSHFPRP | -0.621
7 | RRIRGRPPRLPRPRPRPSHGPRP | 0.487
8 | RRIRGRPPRLPRPRPRPSHYPRP | -0.0921
9 | RRIRGRPPRLPRPRPRPSKHPRP | -0.0347
10 | RRIRGRPPRLPRPRPRPSKVPRP | -0.116
11 | RRIRGRPPRLPRPRPRPSKYPRP | 0.00351
12 | RRIRGRPPRLPRPRPRPSMDPRP | 0.0712
13 | RRIRGRPPRLPRPRPRPSNTPRP | -0.023
14 | RRIRGRPPRLPRPRPRPSRNPRP | 0.0365
15 | RRIRGRPPRLPRPRPRPSRPPRP | 0.624
16 | RRIRGRPPRLPRPRPRPSRWPRP | 0.489
17 | RRIRGRPPRLPRPRPRPSTPPRP | 0.468
18 | RRIRGRPPRLPRPRPRPSTWPRP | 0.22
19 | RRIRGRPPRLPRPRPRPSWMPRP | -0.208
20 | RRIRGRPPRLPRPRPRPSWPPRP | 0.384
21 | RRIRGRPPRLPRPRPRPSWRPRP | 0.477
22 | RRIRGRPPRLPRPRPRPTAKPRP | 1.92

Row | Sequence | shrunken log2 fold change
23 | RRIRGRPPRLPRPRPRPTCQPRP | 0.71
24 | RRIRGRPPRLPRPRPRPTDPPRP | 0.687
25 | RRIRGRPPRLPRPRPRPTEMPRP | 0.814
26 | RRIRGRPPRLPRPRPRPTFRPRP | -0.135
27 | RRIRGRPPRLPRPRPRPTGLPRP | 0.885
28 | RRIRGRPPRLPRPRPRPTHKPRP | 0.854
29 | RRIRGRPPRLPRPRPRPTITPRP | 0.526
30 | RRIRGRPPRLPRPRPRPTIYPRP | 0.365
31 | RRIRGRPPRLPRPRPRPTKAPRP | 1.03
32 | RRIRGRPPRLPRPRPRPTMKPRP | 0.757
33 | RRIRGRPPRLPRPRPRPTMLPRP | 0.52
34 | RRIRGRPPRLPRPRPRPTMWPRP | 0.757
35 | RRIRGRPPRLPRPRPRPTNAPRP | 0.923
36 | RRIRGRPPRLPRPRPRPTNEPRP | 0.46
37 | RRIRGRPPRLPRPRPRPTNGPRP | 0.254
38 | RRIRGRPPRLPRPRPRPTNVPRP | 0.141
39 | RRIRGRPPRLPRPRPRPTPPPRP | 1.06
40 | RRIRGRPPRLPRPRPRPTSLPRP | 0.542
41 | RRIRGRPPRLPRPRPRPTTQPRP | 0.429
42 | RRIRGRPPRLPRPRPRPTTRPRP | 0.79
43 | RRIRGRPPRLPRPRPRPTVNPRP | 0.597
44 | RRIRGRPPRLPRPRPRPTYGPRP | 0.372

Row | Sequence | shrunken log2 fold change
45 | RRIRGRPPRLPRPRPRPTYNPRP | 0.0375
46 | RRIRGRPPRLPRPRPRPVAWPRP | 0.508
47 | RRIRGRPPRLPRPRPRPVCIPRP | 0.344
48 | RRIRGRPPRLPRPRPRPVCMPRP | 0.406
49 | RRIRGRPPRLPRPRPRPVCPPRP | 0.385
50 | RRIRGRPPRLPRPRPRPVFAPRP | 0.696
51 | RRIRGRPPRLPRPRPRPVFSPRP | 0.0314
52 | RRIRGRPPRLPRPRPRPVHPPRP | 2.04
53 | RRIRGRPPRLPRPRPRPVIIPRP | 2.29
54 | RRIRGRPPRLPRPRPRPVKLPRP | -0.0292
55 | RRIRGRPPRLPRPRPRPVLQPRP | 0.142
56 | RRIRGRPPRLPRPRPRPVLWPRP | 1
57 | RRIRGRPPRLPRPRPRPVNCPRP | 0.139
58 | RRIRGRPPRLPRPRPRPVNTPRP | 0.0713
59 | RRIRGRPPRLPRPRPRPVPFPRP | 0.289
60 | RRIRGRPPRLPRPRPRPVPTPRP | 0.865
61 | RRIRGRPPRLPRPRPRPVRNPRP | 0.308
62 | RRIRGRPPRLPRPRPRPVSRPRP | 0.491
63 | RRIRGRPPRLPRPRPRPVTFPRP | 0.172
64 | RRIRGRPPRLPRPRPRPVTHPRP | 0.106
65 | RRIRGRPPRLPRPRPRPVTSPRP | 0.203
66 | RRIRGRPPRLPRPRPRPVVEPRP | 0.937

Row | Sequence | shrunken log2 fold change
67 | RRIRGRPPRLPRPRPRPVVIPRP | -0.253
68 | RRIRGRPPRLPRPRPRPVWTPRP | 0.674
69 | RRIRGRPPRLPRPRPRPVYKPRP | 0.0688
70 | RRIRGRPPRLPRPRPRPWCIPRP | -0.153
71 | RRIRGRPPRLPRPRPRPWEFPRP | -0.0208
72 | RRIRGRPPRLPRPRPRPWFDPRP | -0.0883
73 | RRIRGRPPRLPRPRPRPWGKPRP | -0.0896
74 | RRIRGRPPRLPRPRPRPWHAPRP | 0.281
75 | RRIRGRPPRLPRPRPRPWHFPRP | -0.0456
76 | RRIRGRPPRLPRPRPRPWHKPRP | -0.299
77 | RRIRGRPPRLPRPRPRPWHMPRP | -0.345
78 | RRIRGRPPRLPRPRPRPWHSPRP | 0.0143
79 | RRIRGRPPRLPRPRPRPWHVPRP | -0.0733
80 | RRIRGRPPRLPRPRPRPWKFPRP | -0.211
81 | RRIRGRPPRLPRPRPRPWKGPRP | 0.22
82 | RRIRGRPPRLPRPRPRPWLGPRP | 0.245
83 | RRIRGRPPRLPRPRPRPWLVPRP | 0.422
84 | RRIRGRPPRLPRPRPRPWMDPRP | 0.166
85 | RRIRGRPPRLPRPRPRPWMGPRP | -0.0634
86 | RRIRGRPPRLPRPRPRPWMVPRP | 0.213
87 | RRIRGRPPRLPRPRPRPWNKPRP | -0.306
88 | RRIRGRPPRLPRPRPRPWNRPRP | -0.0647

Row | Sequence | shrunken log2 fold change
89 | RRIRGRPPRLPRPRPRPWNSPRP | -0.00154
90 | RRIRGRPPRLPRPRPRPWNVPRP | -0.0303
91 | RRIRGRPPRLPRPRPRPWPCPRP | 0.373
92 | RRIRGRPPRLPRPRPRPWPEPRP | 0.29
93 | RRIRGRPPRLPRPRPRPWPHPRP | 0.074
94 | RRIRGRPPRLPRPRPRPWPSPRP | 0.258
95 | RRIRGRPPRLPRPRPRPWQSPRP | 0.161
96 | RRIRGRPPRLPRPRPRPWRWPRP | 0.656
97 | RRIRGRPPRLPRPRPRPWTKPRP | 0.0647
98 | RRIRGRPPRLPRPRPRPWTTPRP | 0.00743
99 | RRIRGRPPRLPRPRPRPWVKPRP | 0.0642
100 | RRIRGRPPRLPRPRPRPWWTPRP | -0.124
101 | RRIRGRPPRLPRPRPRPWWYPRP | -0.119
102 | RRIRGRPPRLPRPRPRPWYAPRP | -0.249
103 | RRIRGRPPRLPRPRPRPWYFPRP | -0.417
104 | RRIRGRPPRLPRPRPRPYANPRP | 0.0266
105 | RRIRGRPPRLPRPRPRPYCGPRP | -0.349
106 | RRIRGRPPRLPRPRPRPYCPPRP | -0.333
107 | RRIRGRPPRLPRPRPRPYCWPRP | 0.0345
108 | RRIRGRPPRLPRPRPRPYEMPRP | 0.0132
109 | RRIRGRPPRLPRPRPRPYGLPRP | 0.0992
